In patent US20120034163A1, “NON-INVASIVE TOOLS FOR DETECTING VULNERABLE ATHEROSCLEROTIC PLAQUES” (UNIVERSITE JOSEPH FOURIER, priority 2009, published 2012):
Where no end group is shown, it is not given here.

How the values were obtained:
[1] = target: T1, VCAM-1 (Homo sapiens, UniProt P19320); conditions: Ling et al. (2000); cited from earlier work
T1 sequence (P19320 25-739): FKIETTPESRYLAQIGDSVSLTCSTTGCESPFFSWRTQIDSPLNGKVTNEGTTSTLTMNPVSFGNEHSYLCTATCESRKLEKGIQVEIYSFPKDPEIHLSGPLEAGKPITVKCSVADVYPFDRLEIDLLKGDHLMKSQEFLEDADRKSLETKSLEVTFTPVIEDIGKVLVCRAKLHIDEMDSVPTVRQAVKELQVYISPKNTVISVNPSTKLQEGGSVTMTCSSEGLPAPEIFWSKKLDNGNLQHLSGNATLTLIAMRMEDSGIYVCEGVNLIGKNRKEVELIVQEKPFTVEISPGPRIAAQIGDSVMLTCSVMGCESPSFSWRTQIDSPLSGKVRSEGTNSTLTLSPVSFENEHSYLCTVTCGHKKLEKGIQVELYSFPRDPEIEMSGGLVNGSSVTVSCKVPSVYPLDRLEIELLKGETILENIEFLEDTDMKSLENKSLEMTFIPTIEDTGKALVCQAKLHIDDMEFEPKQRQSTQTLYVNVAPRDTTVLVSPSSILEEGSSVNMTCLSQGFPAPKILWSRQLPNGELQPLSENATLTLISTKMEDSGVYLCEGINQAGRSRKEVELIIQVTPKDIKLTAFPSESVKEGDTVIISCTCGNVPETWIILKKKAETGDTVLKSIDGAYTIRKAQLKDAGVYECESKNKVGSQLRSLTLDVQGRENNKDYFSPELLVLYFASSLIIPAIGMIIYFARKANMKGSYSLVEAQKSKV

[2] = target: T2, VCAM-1 expression in the atherosclerotic lesion (Mus musculus, UniProt P29533); assay: In vivo whole-body planar imaging; set-up: species or system ApoE−/− mice; conditions: for Non invasive imaging of tracer uptake in the carotid atherosclerotic lesion: whole-body planar images, similar dose of tracer, FIG. 6; for Left-to-right carotid activity ratio from quantified planar images compared to EP43: FIG. 8, FIG. 9
T2 construct: The inventors observed a positive VCAM-1 staining in the atherosclerotic lesion as compared with a contralateral vessel; from tissue; host or cells: ligated left carotid artery (atherosclerotic lesion) of living ApoE-/- mice
T2 sequence (P29533 25-739): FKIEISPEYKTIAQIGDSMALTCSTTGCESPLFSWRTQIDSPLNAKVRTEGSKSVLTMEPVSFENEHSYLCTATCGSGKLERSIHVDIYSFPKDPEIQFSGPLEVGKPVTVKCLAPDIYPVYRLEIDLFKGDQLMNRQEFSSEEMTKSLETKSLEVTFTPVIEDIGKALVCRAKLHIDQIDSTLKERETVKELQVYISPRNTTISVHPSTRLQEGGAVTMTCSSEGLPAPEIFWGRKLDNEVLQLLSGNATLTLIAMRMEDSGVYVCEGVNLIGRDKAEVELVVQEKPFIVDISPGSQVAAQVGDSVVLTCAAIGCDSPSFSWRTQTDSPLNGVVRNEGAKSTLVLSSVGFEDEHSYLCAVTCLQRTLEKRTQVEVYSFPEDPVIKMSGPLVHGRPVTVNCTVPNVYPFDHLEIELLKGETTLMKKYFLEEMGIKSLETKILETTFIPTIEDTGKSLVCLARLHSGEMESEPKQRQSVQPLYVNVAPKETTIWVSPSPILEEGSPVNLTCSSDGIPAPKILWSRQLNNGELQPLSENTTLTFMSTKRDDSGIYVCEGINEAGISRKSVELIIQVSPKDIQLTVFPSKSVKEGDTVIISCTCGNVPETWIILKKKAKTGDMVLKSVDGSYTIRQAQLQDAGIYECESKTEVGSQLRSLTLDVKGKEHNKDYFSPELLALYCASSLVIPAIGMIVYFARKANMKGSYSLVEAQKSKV
Experimental: In vivo planar imaging was performed using a small-animal dedicated gamma-camera equipped with a parallel-hole collimator.

[3] = target: T2, VCAM-1 expression in the atherosclerotic lesion; assay: Carotid activity ratios from gamma-well counting of excised vessels and blood; format: in vivo, ApoE−/− mice; conditions: for Left-to-right carotid artery activity ratio compared with EP43: FIG. 4; for Left carotid-to-blood activity ratio compared with EP43: FIG. 5
Description: The inventors also analyzed the left-to-right carotid activity ratios (FIG. 1) and left carotid-to-blood activity ratios (FIG. 2). These ratios were obtained from gamma-well counting of excised vessels and blood.

[4] = target: T3, VCAM-1 expression in atherosclerotic lesions (Mus musculus, UniProt P29533); assay: In vivo pinhole SPECT imaging; set-up: species or system ApoE−/− mice
T3 construct: The inventors observed a positive VCAM-1 staining in the atherosclerotic lesion as compared with a contralateral vessel; from tissue; host or cells: ligated left carotid artery (atherosclerotic lesion) of living ApoE-/- mice
T3 sequence (P29533 25-739): T2 sequence (P29533 25-739)
Experimental: In vivo pinhole SPECT imaging was performed using a small-animal dedicated gamma-camera equipped with a pinhole collimator for high-resolution imaging.

[5] = Organ biodistribution of 99mTc-labelled tracers by gamma-well counting of excised organs; conditions: 3 hours after injection
Experimental: An experimental model of ApoE^−/− mice with left carotid artery ligation was used.
Left carotid artery ligation was performed under anesthesia and the animals were returned to their cages. Three weeks later, the animals were re-anesthetized and the radiotracers were injected in a lateral tail vein. Planar imaging was performed for 3 hours before the animals were euthanized. The major organs were excised, weighed and gamma-well counted for the determination of the tracers' biodistribution.

[6] = high resolution pinhole SPECT, FIG. 10

| Sequence | Left-to-right carotid artery activity ratio compared with EP43 [3] | Left carotid-to-blood activity ratio compared with EP43 [3] | Left-to-right carotid activity ratio from quantified planar images compared to EP43 [2] | Binding to VCAM-1 [1] | Non invasive imaging of tracer uptake in the carotid atherosclerotic lesion [2] | further results |
| --- | --- | --- | --- | --- | --- | --- |
| YRLAIRLNER RENLRIALRY (YRLAIRLNERRENLRIALRY; B2702-rp) | – | – | – | bind specifically | – | – |
| HGRENLRIALRY [B2702-p, parent tracer, reference compound] | – | – | – | bind specifically | high circulating blood activity precluded the non invasive imaging | – |
| HGRANLRILARY (not fully specified; also: 99mTc label) [EP43] | – | – | – | – | allowed the detection of VCAM-1 expression in the atherosclerotic lesion | Left-to-right carotid activity ratio versus B2702-p ([3]; gamma-well counting, FIG. 1): significantly higher; Left carotid-to-blood activity ratio versus B2702-p ([3]; gamma-well counting, FIG. 2): significantly higher; Quantification of planar images, compared with other evaluated tracers ([2]; FIG. 7): superiority; Tracer activity in the atherosclerotic lesion versus contralateral vessel, image quantification ([4]; all animals, FIG. 11): significantly higher mean tracer activity; In vivo SPECT imaging of VCAM-1 expression in atherosclerotic lesions ([4]; conclusion): allowed in vivo SPECT imaging of VCAM-1 expression in atherosclerotic lesions; Tracer activity in the right carotid area [4, 6]: no significant tracer activity could be detected; Tracer uptake at the atherosclerotic lesion (left carotid) [4, 6]: uptake at the level of the atherosclerotic lesion; Left carotid activity, compared among tracers [5]: highest left carotid activity; Tracer activity in the atherosclerotic lesion versus contralateral, control carotid [5]: significantly higher |

Second part, led by results:

| Left-to-right carotid artery activity ratio compared with EP43 [3] | Left carotid-to-blood activity ratio compared with EP43 [3] | Left-to-right carotid activity ratio from quantified planar images compared to EP43 [2] | Sequence | Binding to VCAM-1 [1] | Non invasive imaging of tracer uptake in the carotid atherosclerotic lesion [2] | further results |
| --- | --- | --- | --- | --- | --- | --- |
| did not display improved | did not display improved | did not display improved | HGRANLRILAAY (also: 99mTc label) [EP52] | – | – | – |
| did not display improved | did not display improved | did not display improved | HGRANLRILARA (also: 99mTc label) [EP51] | – | – | – |
